Source: paper PMC7037157, “Parallel Strategy Increases the Thermostability and Activity of Glutamate Decarboxylase” (Molecules, 2020)
Residue numbers refer to the chain shown, from its start. Names may count otherwise.

B1: GAD (glutamate decarboxylase; GAD1407) (Levilactobacillus brevis; N193D) (protein)
chain: MAMLYGKHTHETDETLKPIFGASAERHDLPKYKLAKHALEPREADRLVRDQLLDEGNSRLNLATFCQTYMEPEAVELMKDTLEKNAIDKSEYPRTAEIENRCVNIIANLWHAPEAESFTGTSTIGSSEACMLAGLAMKFAWRKRAKANGLDLTAHQPNIVISAGYQVCWEKFCVYWDIDMHVVPMDDDHMSLDVDHVLDYVDDYTIGIVGIMGITYTGQYDDLARLDAVVERYNRTTKFPVYIHVDAASGGFYTPFIEPELKWDFRLNNVISINASGHKYGLVYPGVGWVIWRDQQYLPKELVFKVSYLGGELPTMAINFSHSASQLIGQYYNFIRFGFDGYREIQEKTHDVARYLAKSLTKLGGFSLINDGHELPLICYELTADSDREWTLYDLSDRLLMKGWQVPTYPLPKNMTDRVIQRIVVRADFGMSMAHDFIDDLTQAIHDLDQAHIVFHSDPQPKKYGFTH
notes: pET28a(+)-GAD1407, expressed in E. coli BL21(DE3), Ni-NTA purified (His tag)
B2: GAD (glutamate decarboxylase; GAD1407) (Levilactobacillus brevis) (protein)
chain: B1 chain with D193N
notes: as for B1
B3: GAD (glutamate decarboxylase; GAD1407) (Levilactobacillus brevis; D203E) (protein)
chain: B1 chain with D193N, D203E
notes: as for B1
B4: GAD (glutamate decarboxylase; GAD1407) (Levilactobacillus brevis; S325A) (protein)
chain: B1 chain with D193N, S325A
notes: as for B1

Substrate: N[C@@H](CCC(=O)O)C(=O)O
Assay: initial rates; GABA dansylated, HPLC
Assay type: biochemical, Levilactobacillus brevis
Settings: 0.2 mol/L HAc-NaAc buffer, pH 4.8, 10-100 mmol/L L-glutamate, standard assay 48 °C, 40 μmol/L PLP
Text: initial rates; GABA dansylated, HPLC on GAD (glutamate decarboxylase; GAD1407)

Protein	Km	kcat	kcat/Km
B1	34.35 mM	138 s⁻¹	4000 M⁻¹ s⁻¹
B2	39.72 mM	102 s⁻¹	2570 M⁻¹ s⁻¹
B3	26.60 mM	40.2 s⁻¹	1510 M⁻¹ s⁻¹
B4	42.39 mM	176 s⁻¹	4160 M⁻¹ s⁻¹
